Laboratory results: patent publication US20250018053A1

Experiments:
Test in all cases: flow cytometry, transfected CHO cells
[1] = biological target: Mouse N4
[2] = biological target: Monkey N4
[3] = biological target: Human N4 (human) (UniProt Q96NY8)
[4] = biological target: Rat N4

Sequence of Human N4 (human) (Q96NY8 32-510): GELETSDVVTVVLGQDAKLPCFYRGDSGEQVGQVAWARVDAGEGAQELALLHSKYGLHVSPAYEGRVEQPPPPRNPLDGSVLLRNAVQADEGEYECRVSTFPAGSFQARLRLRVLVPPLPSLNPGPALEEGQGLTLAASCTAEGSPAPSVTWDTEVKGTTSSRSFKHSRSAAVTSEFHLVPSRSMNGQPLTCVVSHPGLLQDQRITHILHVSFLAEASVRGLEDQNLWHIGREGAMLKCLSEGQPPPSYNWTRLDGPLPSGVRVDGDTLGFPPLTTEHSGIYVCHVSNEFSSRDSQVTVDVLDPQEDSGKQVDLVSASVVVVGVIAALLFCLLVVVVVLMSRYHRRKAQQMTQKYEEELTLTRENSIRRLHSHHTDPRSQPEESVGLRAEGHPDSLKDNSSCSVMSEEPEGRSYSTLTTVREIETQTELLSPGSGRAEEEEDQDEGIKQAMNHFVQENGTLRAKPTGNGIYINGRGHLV

EC50 [1]: 41100 pM
EC50 [2]: 67.8 pM
EC50 [3]: 346 pM
EC50 [4]: 97 pM
Substance: Enfortumab (HA22)
